Measured values reported in US20160272683A1 (Novo Nordisk, published 2016).
Numbered stars: 1 amine (or outer) side, 2 acyl side, 3 side chain; on linkers, the order of the positions; unused ones are H or OH. * marks the point of attachment. C20 diacid = O=C(O)CCCCCCCCCCCCCCCCCCC(=O)*; C18 diacid = O=C(O)CCCCCCCCCCCCCCCCC(=O)*; C16 diacid = O=C(O)CCCCCCCCCCCCCCC(=O)*; γGlu = O=C(O)[C@H](CCC(=O)[*:2])N[*:1]; AEEA = NCCOCCOCC(=O)O

B1: [N-terminal(C18 diacid), 9V, 12K, 25K]mimylin (peptide)
peptide: {C18 diacid}-EASELSTAVLGKLSAELHELATLPKTETGPESP-NH2
SMILES: CC(C)C[C@H](NC(=O)[C@H](CCC(=O)O)NC(=O)[C@H](Cc1c[nH]cn1)NC(=O)[C@H](CC(C)C)NC(=O)[C@H](CCC(=O)O)NC(=O)[C@H](C)NC(=O)[C@H](CO)NC(=O)[C@H](CC(C)C)NC(=O)[C@H](CCCCN)NC(=O)CNC(=O)[C@H](CC(C)C)NC(=O)[C@@H](NC(=O)[C@H](C)NC(=O)[C@@H](NC(=O)[C@H](CO)NC(=O)[C@H](CC(C)C)NC(=O)[C@H](CCC(=O)O)NC(=O)[C@H](CO)NC(=O)[C@H](C)NC(=O)[C@H](CCC(=O)O)NC(=O)CCCCCCCCCCCCCCCCC(=O)O)[C@@H](C)O)C(C)C)C(=O)N[C@@H](C)C(=O)N[C@H](C(=O)N[C@@H](CC(C)C)C(=O)N1CCC[C@H]1C(=O)N[C@@H](CCCCN)C(=O)N[C@H](C(=O)N[C@@H](CCC(=O)O)C(=O)N[C@H](C(=O)NCC(=O)N1CCC[C@H]1C(=O)N[C@@H](CCC(=O)O)C(=O)N[C@@H](CO)C(=O)N1CCC[C@H]1C(N)=O)[C@@H](C)O)[C@@H](C)O)[C@@H](C)O

The binders below were run against T1, human amylin 3(a) receptor (human calcitonin receptor co-expressed with RAMP-3) (human, UniProt P30988 25-474; O60896 24-148, limits assumed) (assay: cell-based or functional assay).
T1 sequence (looked up) 1: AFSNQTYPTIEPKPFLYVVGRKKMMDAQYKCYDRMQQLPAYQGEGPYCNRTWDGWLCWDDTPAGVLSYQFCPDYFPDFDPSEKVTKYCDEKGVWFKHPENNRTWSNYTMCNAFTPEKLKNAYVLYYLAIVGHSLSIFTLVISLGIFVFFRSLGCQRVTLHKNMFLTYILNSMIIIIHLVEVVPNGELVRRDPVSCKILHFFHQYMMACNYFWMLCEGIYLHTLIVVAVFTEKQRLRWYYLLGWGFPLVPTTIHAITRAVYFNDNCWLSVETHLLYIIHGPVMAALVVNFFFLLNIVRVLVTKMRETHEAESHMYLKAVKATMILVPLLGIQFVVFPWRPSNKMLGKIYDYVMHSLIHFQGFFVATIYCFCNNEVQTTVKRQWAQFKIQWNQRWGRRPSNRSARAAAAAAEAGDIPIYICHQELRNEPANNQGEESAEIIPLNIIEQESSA
T1 sequence (looked up) 2: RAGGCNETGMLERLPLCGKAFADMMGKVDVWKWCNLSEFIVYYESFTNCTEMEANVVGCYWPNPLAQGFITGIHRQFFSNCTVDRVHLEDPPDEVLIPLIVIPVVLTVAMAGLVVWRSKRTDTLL

| Binder | hAmylin-R funct. EC50 (pM) |
| --- | --- |
| {C20 diacid-γGlu}-ASELSTAALGRLSAELHELATLPRTETGSGSP-NH2 [[N-terminal(C20 diacid-gGlu), des1, 30S, 31G]mimylin] | 13 |
| {C20 diacid-γGlu-AEEA-AEEA-AEEA-AEEA}-ASELSTAALGRLSAELHELATLPRTETGSGSP-NH2 [[N-terminal(C20 diacid-gGlu-4xOEG), des1, 30S, 31G]mimylin] | 24 |
| {C20 diacid-γGlu-AEEA-AEEA-AEEA}-ASELSTAALGRLSAELHELATLPRTETGSGSP-NH2 [[N-terminal(C20 diacid-gGlu-3xOEG), des1, 30S, 31G]mimylin] | 18 |
| {C18 diacid}-ASELSTAALGRLSAELHELATLPRTETGSGSP-NH2 [[N-terminal(C18 diacid), des1, 30S, 31G]mimylin] | 18 |
| {C20 diacid-γGlu-AEEA-AEEA}-ASELSTAALGRLSAELHELATLPRTETGSGSP-NH2 [[N-terminal(C20 diacid-gGlu-2xOEG), des1, 30S, 31G]mimylin] | 17 |
| {C16 diacid-γGlu}-ASELSTAALGRLSAELHELATLPRTETGSGSP-NH2 [[N-terminal(C16 diacid-gGlu), des1, 30S, 31G]mimylin] | 18 |
| {C18 diacid-γGlu}-ASELSTAALGRLSAELHELATLPRTETGSGSP-NH2 [[N-terminal(C18 diacid-gGlu), des1, 30S, 31G]mimylin] | 16 |
| B1 | 16 |
| {C20 diacid-γGlu-AEEA}-ASELSTAALGRLSAELHELATLPRTETGSGSP-NH2 [[N-terminal(C20 diacid-gGlu-OEG), des1, 30S, 31G]mimylin] | 27 |
| {C20 diacid-γGlu-AEEA-AEEA-AEEA-AEEA-AEEA}-ASELSTAALGRLSAELHELATLPRTETGSGSP-NH2 [[N-terminal(C20 diacid-gGlu-5xOEG), des1, 30S, 31G]mimylin] | 15 |

The binders below were run against T2, human calcitonin receptor (human, UniProt P30988 25-474) (assay: cell-based or functional assay).
T2 sequence (looked up): T1 sequence (looked up) 1

| Binder | hCTR funct. EC50 (pM) |
| --- | --- |
| {C20 diacid-γGlu}-ASELSTAALGRLSAELHELATLPRTETGSGSP-NH2 [[N-terminal(C20 diacid-gGlu), des1, 30S, 31G]mimylin] | 14 |
| {C20 diacid-γGlu-AEEA-AEEA-AEEA-AEEA}-ASELSTAALGRLSAELHELATLPRTETGSGSP-NH2 [[N-terminal(C20 diacid-gGlu-4xOEG), des1, 30S, 31G]mimylin] | 13 |
| {C20 diacid-γGlu-AEEA-AEEA-AEEA}-ASELSTAALGRLSAELHELATLPRTETGSGSP-NH2 [[N-terminal(C20 diacid-gGlu-3xOEG), des1, 30S, 31G]mimylin] | 11 |
| {C18 diacid}-ASELSTAALGRLSAELHELATLPRTETGSGSP-NH2 [[N-terminal(C18 diacid), des1, 30S, 31G]mimylin] | 17 |
| {C20 diacid-γGlu-AEEA-AEEA}-ASELSTAALGRLSAELHELATLPRTETGSGSP-NH2 [[N-terminal(C20 diacid-gGlu-2xOEG), des1, 30S, 31G]mimylin] | 12 |
| {C16 diacid-γGlu}-ASELSTAALGRLSAELHELATLPRTETGSGSP-NH2 [[N-terminal(C16 diacid-gGlu), des1, 30S, 31G]mimylin] | 15 |
| {C18 diacid-γGlu}-ASELSTAALGRLSAELHELATLPRTETGSGSP-NH2 [[N-terminal(C18 diacid-gGlu), des1, 30S, 31G]mimylin] | 17 |
| B1 | 8 |
| {C20 diacid-γGlu-AEEA}-ASELSTAALGRLSAELHELATLPRTETGSGSP-NH2 [[N-terminal(C20 diacid-gGlu-OEG), des1, 30S, 31G]mimylin] | 18 |
| {C20 diacid-γGlu-AEEA-AEEA-AEEA-AEEA-AEEA}-ASELSTAALGRLSAELHELATLPRTETGSGSP-NH2 [[N-terminal(C20 diacid-gGlu-5xOEG), des1, 30S, 31G]mimylin] | 10 |
